Laboratory results as given in US20180194851A1 (Pfizer, published 2018).

Assays:
CD40 on 300.19 cells = molecular target: T1, CD40 on 300.19 cells (UniProt P25942 21-277, limits assumed); assay: FACS on 300.19 cells expressing CD40
T1 construct: whole, on cells; also called TNFRSF5; 300.19 CD40

Hu41BB N&E.3 = molecular target: T2, Hu41BB N&E.3 (human, UniProt Q07011 18-255); assay: FACS, 100 nM antibody, transduced 300-19 cell pools
T2 construct: Human-to-dog mutant of the human 4-1BB extracellular domain, expressed on transduced 300-19 cells
T2 chain: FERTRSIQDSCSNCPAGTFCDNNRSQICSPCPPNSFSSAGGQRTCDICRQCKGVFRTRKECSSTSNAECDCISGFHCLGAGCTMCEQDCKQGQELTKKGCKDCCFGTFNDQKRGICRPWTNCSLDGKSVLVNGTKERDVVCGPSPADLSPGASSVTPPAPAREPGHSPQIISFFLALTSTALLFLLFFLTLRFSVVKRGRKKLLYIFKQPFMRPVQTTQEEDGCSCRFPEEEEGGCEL

OX-40 on 300.19 cells = molecular target: T3, OX-40 on 300.19 cells (UniProt P43489 29-277, limits assumed); assay: FACS on 300.19 cells expressing OX-40
T3 construct: whole, on cells; also called CD134; TNFRSF4
T3 sequence (looked up): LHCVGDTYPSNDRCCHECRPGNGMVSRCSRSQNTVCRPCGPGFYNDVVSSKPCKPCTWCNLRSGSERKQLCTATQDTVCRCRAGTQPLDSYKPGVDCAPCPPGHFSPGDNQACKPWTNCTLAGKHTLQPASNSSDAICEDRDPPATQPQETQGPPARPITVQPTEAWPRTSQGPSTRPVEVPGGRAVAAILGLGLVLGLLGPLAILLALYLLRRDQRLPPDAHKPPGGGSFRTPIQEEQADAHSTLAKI

Hu41BB N&E.4 = molecular target: T4, Hu41BB N&E.4 (human, UniProt Q07011 18-255); assay: FACS, 100 nM antibody, transduced 300-19 cell pools
T4 construct: Human-to-dog mutant of the human 4-1BB extracellular domain, expressed on transduced 300-19 cells
T4 chain: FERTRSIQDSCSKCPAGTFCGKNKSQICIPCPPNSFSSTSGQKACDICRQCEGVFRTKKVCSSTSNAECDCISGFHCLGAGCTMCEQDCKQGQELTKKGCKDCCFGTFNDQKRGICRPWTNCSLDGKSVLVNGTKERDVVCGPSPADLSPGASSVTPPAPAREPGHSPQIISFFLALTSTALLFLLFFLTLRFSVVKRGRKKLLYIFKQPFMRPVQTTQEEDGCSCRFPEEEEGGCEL

[1] = molecular target: T5, Recombinant human 4-1BB/Fc Chimera (R&D Systems #838-4B) (human, UniProt Q07011 24-186); assay: ligand competition ELISA, 4-1BB_IgG1Fc to plate-bound 4-1BBL (competitor 4-1BBL)
T5 construct: Bought protein; also called Human 4-1BB IgG1Fc chimera; not shown: Factor Xa-cleavable junction, human IgG1 Fc and 6xHistidine tag of the bought chimera

[2] = molecular target: T5, Recombinant human 4-1BB/Fc Chimera (R&D …); assay: ELISA on coated human 4-1BB IgG1Fc chimera
[3] = molecular target: T6, human 4-1BB extracellular portion, amino acids 24-186 (Fc cleaved off with Factor Xa) (human, UniProt Q07011 24-186); assay: SPR (Biacore 3000), antibody amine-coupled, 4-1BB 24-186 as analyte, 25 C
T6 construct: Made from the R&D Systems 4-1BB/Fc chimera by Factor Xa cleavage; also called recombinant human 4-1BB; the 4-1BB

human 4-1BB on cells [4] = molecular target: T7, human 4-1BB on cells (human, UniProt Q07011 18-255); assay: FACS on HEK293T cells expressing human 4-1BB, IgG1
T7 construct: Expressed on stably transfected HEK293/HEK293T cells, transduced 300-19 cells or PHA stimulated human PBMC; also called h41BB; hu4-1BB

Hu41BB N&E = molecular target: T8, Hu41BB N&E (human, UniProt Q07011 18-255); assay: FACS, 100 nM antibody, transduced 300-19 cell pools
T8 construct: Human-to-dog mutant of the human 4-1BB extracellular domain, expressed on transduced 300-19 cells
T8 chain: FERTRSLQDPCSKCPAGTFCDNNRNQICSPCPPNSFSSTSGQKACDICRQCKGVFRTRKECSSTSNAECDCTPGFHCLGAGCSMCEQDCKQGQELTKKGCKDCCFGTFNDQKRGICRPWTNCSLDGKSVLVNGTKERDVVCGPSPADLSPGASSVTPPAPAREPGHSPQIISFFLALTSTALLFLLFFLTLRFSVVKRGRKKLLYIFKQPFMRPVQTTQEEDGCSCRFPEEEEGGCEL

Hu41BB N&E.6 = molecular target: T9, Hu41BB N&E.6 (human, UniProt Q07011 18-255); assay: as above
T9 construct: Human-to-dog mutant of the human 4-1BB extracellular domain, expressed on transduced 300-19 cells
T9 chain: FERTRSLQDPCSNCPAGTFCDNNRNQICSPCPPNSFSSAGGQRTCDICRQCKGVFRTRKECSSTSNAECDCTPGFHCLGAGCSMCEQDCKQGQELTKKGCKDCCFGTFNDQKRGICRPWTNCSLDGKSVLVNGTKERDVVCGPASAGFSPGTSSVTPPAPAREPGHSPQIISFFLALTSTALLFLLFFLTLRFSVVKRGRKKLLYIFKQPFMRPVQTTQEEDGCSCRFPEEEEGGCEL

Hu41BB N&E.1 = molecular target: T10, Hu41BB N&E.1 (human, UniProt Q07011 18-255); assay: as above
T10 construct: Human-to-dog mutant of the human 4-1BB extracellular domain, expressed on transduced 300-19 cells
T10 chain: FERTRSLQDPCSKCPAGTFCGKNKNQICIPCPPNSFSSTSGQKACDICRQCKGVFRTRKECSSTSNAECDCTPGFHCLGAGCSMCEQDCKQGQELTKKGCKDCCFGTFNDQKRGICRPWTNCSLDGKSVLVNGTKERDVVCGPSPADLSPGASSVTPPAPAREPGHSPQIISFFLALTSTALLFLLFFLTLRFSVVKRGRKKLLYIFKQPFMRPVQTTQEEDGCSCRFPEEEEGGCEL

Hu41BB N&E.5 = molecular target: T11, Hu41BB N&E.5 (human, UniProt Q07011 18-255); assay: as above
T11 construct: Human-to-dog mutant of the human 4-1BB extracellular domain, expressed on transduced 300-19 cells; also called 4-1BB Mutant N&E.5
T11 chain: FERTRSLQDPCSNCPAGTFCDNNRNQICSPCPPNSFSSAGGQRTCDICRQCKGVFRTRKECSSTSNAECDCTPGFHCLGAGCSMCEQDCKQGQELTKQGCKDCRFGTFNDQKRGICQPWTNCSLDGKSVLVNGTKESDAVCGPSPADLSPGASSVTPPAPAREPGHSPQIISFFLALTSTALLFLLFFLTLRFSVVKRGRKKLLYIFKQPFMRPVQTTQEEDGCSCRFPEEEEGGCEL

human 4-1BB on cells [5] = molecular target: T7, human 4-1BB on cells; assay: FACS on transfected cells
[6] = molecular target: T5, Recombinant human 4-1BB/Fc Chimera (R&D …); assay: ELISA on directly coated human 4-1BB/Fc, IgG1
[7] = molecular target: T5, Recombinant human 4-1BB/Fc Chimera (R&D …); assay: ELISA on directly coated human 4-1BB/Fc
[8] = molecular target: T12, human 4-1BB (recombinant antigen, construct not stated) (human, UniProt Q07011 24-186); assay: SPR (Biacore 3000), Fab analyte on amine-coupled human 4-1BB
T12 construct: It may be the 4-1BB/Fc chimera; also called CD137/HUMAN 4-1BB; unlabeled human 4-1BB

human 4-1BB on cells [9] = molecular target: T7, human 4-1BB on cells; assay: FACS on HEK293 cells expressing human 4-1BB

T1 sequence (P25942 21-277 limits assumed): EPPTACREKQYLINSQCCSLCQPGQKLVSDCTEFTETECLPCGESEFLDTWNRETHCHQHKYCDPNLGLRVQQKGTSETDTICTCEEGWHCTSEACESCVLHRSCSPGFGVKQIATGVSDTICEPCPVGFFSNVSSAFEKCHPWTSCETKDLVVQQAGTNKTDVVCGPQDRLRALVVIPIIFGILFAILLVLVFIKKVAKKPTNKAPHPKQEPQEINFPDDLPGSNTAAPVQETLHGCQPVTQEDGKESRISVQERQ

B1: MOR-6032 (IgG1) (antibody, V domains shown)
VH: QVQLVQSGAEVKKPGSSVKVSCKASGGTFNSYAISWVRQAPGQGLEWMGGIIPGFGTANYAQKFQGRVTITADESTSTAYMELSSLRSEDTAVYYCARKNEEDGGFDHWGQGTLVTVSS
VL: DIELTQPPSVSVAPGQTARISCSGDNLGDYYASWYQQKPGQAPVLVIYDDSNRPSGIPERFSGSNSGNTATLTISGTQAEDEADYYCQTWDGTLHFVFGGGTKLTVL
notes: Human IgG1 format, lambda light chain; also called 6032_G1
binding result (CD40 on 300.19 cells): no binding (tested: 1000 nM)
binding result (Hu41BB N&E.3): binds
binding result (OX-40 on 300.19 cells): no binding (tested: 1000 nM)

B2: MOR-7483 (IgG1) (antibody, V domains shown)
VH: QVQLVQSGAEVKKPGESLKISCKGSGYSFSTYWISWVRQMPGKGLEWMGKIYPGDSYTNYSPSFQGQVTISADKSISTAYLQWSSLKASDTAMYYCARGYGIFDYWGQGTLVTVSS
VL: DIELTQPPSVSVAPGQTARISCSGDNIGDQYAHWYQQKPGQAPVVVIYQDKNRPSGIPERFSGSNSGNTATLTISGTQAEDEADYYCSTYTFVGFTTVFGGGTKLTVL
notes: Human IgG1 format, lambda light chain; also called 7483_G1
binding result (CD40 on 300.19 cells): no binding (tested: 1000 nM)
binding result (Hu41BB N&E.3): binds
binding result (Hu41BB N&E.4): binds
binding result (OX-40 on 300.19 cells): no binding (tested: 1000 nM)

B3: MOR-7480.2 (IgG1) (antibody, V domains shown)
VH: EVQLVQSGAEVKKPGESLRISCKGSGYSFSTYWISWVRQMPGKGLEWMGKIYPGDSYTNYSPSFQGQVTISADKSISTAYLQWSSLKASDTAMYYCARGYGIFDYWGQGTLVTVSS
VL: SYELTQPPSVSVSPGQTASITCSGDNIGDQYAHWYQQKPGQSPVVVIYQDKNRPSGIPERFSGSNSGNTATLTISGTQAMDEADYYCATYTGFGSLAVFGGGTKLTVL
notes: Human IgG1 format
binding result (Hu41BB N&E.3): binds
binding result (Hu41BB N&E.4): binds

B4: MOR-7480 (IgG2) (antibody, V domains shown)
VH: QVQLVQSGAEVKKPGESLKISCKGSGYSFSTYWISWVRQMPGKGLEWMGKIYPGDSYTNYSPSFQGQVTISADKSISTAYLQWSSLKASDTAMYYCARGYGIFDYWGQGTLVTVSS
VL: DIELTQPPSVSVAPGQTARISCSGDNIGDQYAHWYQQKPGQAPVVVIYQDKNRPSGIPERFSGSNSGNTATLTISGTQAEDEADYYCATYTGFGSLAVFGGGTKLTVLG
% max inhibition [1]: 98%
IC50 [1]: 125 pM
EC50 [2]: 122 pM
Kd [3]: 570 pM
koff [3]: 0.00023 s⁻¹
kon [3]: 450000 M⁻¹ s⁻¹
t1/2 [3]: 50 min

B5: MOR-7483 (IgG2) (antibody, V domains shown)
VH: QVQLVQSGAEVKKPGESLKISCKGSGYSFSTYWISWVRQMPGKGLEWMGKIYPGDSYTNYSPSFQGQVTISADKSISTAYLQWSSLKASDTAMYYCARGYGIFDYWGQGTLVTVSS
VL: DIELTQPPSVSVAPGQTARISCSGDNIGDQYAHWYQQKPGQAPVVVIYQDKNRPSGIPERFSGSNSGNTATLTISGTQAEDEADYYCSTYTFVGFTTVFGGGTKLTVLG
notes: also called 7483_G2
binding result (Hu41BB N&E.3): binds
binding result (Hu41BB N&E.4): binds

B6: MOR-7483.1 (IgG1) (antibody, V domains shown)
VH: EVQLVQSGAEVKKPGESLRISCKGSGYSFSTYWISWVRQMPGKGLEWMGKIYPGDSYTNYSPSFQGQVTISADKSISTAYLQWSSLKASDTAMYYCARGYGIFDYWGQGTLVTVSS
VL: SYELTQPPSVSVSPGQTASITCSGDNIGDQYAHWYQQKPGQSPVLVIYQDKNRPSGIPERFSGSNSGNTATLTISGTQAMDEADYYCSTYTFVGFTTVFGGGTKLTVL
notes: Germlined version of MOR-7483, human IgG1 format
Kd [3]: 28000 pM
koff [3]: 0.022 s⁻¹
kon [3]: 800000 M⁻¹ s⁻¹

B7: MOR-7361 (IgG1) (antibody, V domains shown)
VH: QVQLVESGGGLVQPGGSLRLSCAASGFTFSDYYMHWVRQAPGKGLEWVSVISGSGSNTYYADSVKGRFTISRDNSKNTLYLQMNSLRAEDTAVYYCARLYAQFEGDFWGQGTLVTVSS
VL: DIELTQPPSVSVAPGQTARISCSGDNIGSKYVSWYQQKPGQAPVLVIYSDSERPSGIPERFSGSNSGNTATLTISGTQAEDEADYYCQSWDGSISRVFGGGTKLTVL
notes: Human IgG1 format, lambda light chain; also called 7361_G1
EC50 (human 4-1BB on cells [4]): 800 pM
binding result (CD40 on 300.19 cells): no binding (tested: 1000 nM)
binding result (Hu41BB N&E): binds
binding result (Hu41BB N&E.6): binds
binding result (Hu41BB N&E.1): binds
binding result (Hu41BB N&E.5): binds
fold selectivity for 4-1BB versus OX-40 and CD40 (human 4-1BB on cells [5]): ≥ 100 fold
% max inhibition [1]: 100%
IC50 [1]: 172 pM
EC50 [2]: 91 pM
binding result (OX-40 on 300.19 cells): no binding (tested: 1000 nM)
EC50 [6]: 300 pM

B8: Fab-7361 (Fab, V domains shown)
VH: QVQLVESGGGLVQPGGSLRLSCAASGFTFSDYYMHWVRQAPGKGLEWVSVISGSGSNTYYADSVKGRFTISRDNSKNTLYLQMNSLRAEDTAVYYCARLYAQFEGDFWGQGTLVTVSS
VL: DIELTQPPSVSVAPGQTARISCSGDNIGSKYVSWYQQKPGQAPVLVIYSDSERPSGIPERFSGSNSGNTATLTISGTQAEDEADYYCQSWDGSISRVFGGGTKLTVL
EC50 [7]: 600 pM
Kd [8]: 118000 pM
EC50 (human 4-1BB on cells [9]): 105000 pM
